Blank lines part the entries; values can stand above or below the substance they belong to.
How the values were obtained:
[1] = biological target: KLC2^TPR, purified TPR domain of KLC2; assay: fluorescence polarisation; TAMRA-conjugated DIC1 tryptophan-motif peptides with purified KLC1 or KLC2 TPR domain; KD values determined at 150 mM NaCl
[2] = biological target: HA-tagged KLC2 (kinesin light chain 2) (UniProt O88448); assay: co-immunoprecipitation (IP with anti-mCherry, western blot band intensity); conditions: COS cells cotransfected, n = 4 experiments, parent: est. 1, read off a plot
[3] = biological target: HA-tagged KLC1 (kinesin light chain 1) (UniProt O88447); assay: as above; conditions: COS cells cotransfected, n = 6 experiments, parent: est. 1, read off a plot
Sequence of HA-tagged KLC1 (kinesin light chain 1) (O88447 whole entry): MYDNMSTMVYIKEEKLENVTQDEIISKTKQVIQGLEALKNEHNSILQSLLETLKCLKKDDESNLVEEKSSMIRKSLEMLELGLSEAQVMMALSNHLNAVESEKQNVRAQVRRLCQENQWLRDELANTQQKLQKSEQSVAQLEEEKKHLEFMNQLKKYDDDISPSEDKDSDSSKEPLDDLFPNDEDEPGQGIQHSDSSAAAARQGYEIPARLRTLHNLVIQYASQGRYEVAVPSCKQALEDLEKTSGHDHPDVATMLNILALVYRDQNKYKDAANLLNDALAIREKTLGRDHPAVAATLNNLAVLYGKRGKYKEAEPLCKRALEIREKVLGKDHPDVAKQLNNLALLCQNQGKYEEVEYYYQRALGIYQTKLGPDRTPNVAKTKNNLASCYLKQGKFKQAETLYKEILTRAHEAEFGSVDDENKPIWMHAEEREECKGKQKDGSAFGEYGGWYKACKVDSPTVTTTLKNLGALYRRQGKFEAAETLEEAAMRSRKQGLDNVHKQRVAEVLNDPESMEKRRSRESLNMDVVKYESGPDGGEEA

Sequence of HA-tagged KLC2 (kinesin light chain 2) (O88448 whole entry): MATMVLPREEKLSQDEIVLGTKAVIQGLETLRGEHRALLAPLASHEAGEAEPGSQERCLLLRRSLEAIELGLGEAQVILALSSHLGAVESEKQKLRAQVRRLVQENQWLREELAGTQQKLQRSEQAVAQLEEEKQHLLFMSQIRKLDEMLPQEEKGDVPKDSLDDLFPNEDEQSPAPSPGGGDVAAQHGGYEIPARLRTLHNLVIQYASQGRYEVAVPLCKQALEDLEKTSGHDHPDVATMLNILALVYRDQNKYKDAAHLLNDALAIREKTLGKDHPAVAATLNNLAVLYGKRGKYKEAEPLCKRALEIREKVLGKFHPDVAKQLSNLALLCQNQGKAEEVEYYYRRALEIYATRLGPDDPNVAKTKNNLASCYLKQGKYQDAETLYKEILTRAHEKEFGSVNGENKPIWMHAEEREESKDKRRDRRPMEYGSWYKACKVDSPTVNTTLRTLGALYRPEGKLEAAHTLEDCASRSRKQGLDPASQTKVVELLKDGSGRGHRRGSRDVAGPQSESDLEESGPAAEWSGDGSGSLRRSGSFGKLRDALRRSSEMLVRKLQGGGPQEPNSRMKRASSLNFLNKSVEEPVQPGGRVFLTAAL

Kd [1]: 9.18 µM
Substance: WD1^pept, TAMRA-conjugated 11-amino-acid peptide centered on the first tryptophan motif of DIC1

ratio to parent ([2]; p = 0.014 vs WT): 0.53
ratio to parent ([3]; p = 0.039 vs WT): 0.47
Substance: mCherry-tagged DIC1a (dynein intermediate chain 1, isoform a), wild-type (from UniProt Q63100) WD1&2AA

ratio to parent ([2]; p = 0.4 vs WT): 0.77
ratio to parent ([3]; p = 1 vs WT): 0.93
Substance: mCherry-tagged DIC1a (dynein intermediate chain 1, isoform a), wild-type (from UniProt Q63100) WD1AA

ratio to parent ([2]; p = 0.064 vs WT): 0.63
ratio to parent ([3]; p = 0.08 vs WT): 0.53
Substance: mCherry-tagged DIC1a (dynein intermediate chain 1, isoform a), wild-type (from UniProt Q63100) WD2AA

Source: publication PMC4893161, “The Dynamic Localization of Cytoplasmic Dynein in Neurons Is Driven by Kinesin-1” (Neuron, 2016)
